According to article PMC9239997, “Structural basis for mitoguardin-2 mediated lipid transport at ER-mitochondrial membrane contact sites” (Nature Communications, 2022):
[ ]: non-standard residue; d: D form. pS = N[C@@H](COP(=O)(O)O)C(=O)O

Columns and labels:
[1] = biological target: T1, zMiga2-GST (Danio rerio, UniProt Q5BLE2); assay: preloading, glutathione bead wash, Clear Native-PAGE fluorescence; format: binding; details: labelled compound; probe of the displacement assay
T1 construct: gene miga2; LD targeting domain, residues 310-568, C-terminal GST fusion kept; E. coli
T1 sequence (Q5BLE2 310-568): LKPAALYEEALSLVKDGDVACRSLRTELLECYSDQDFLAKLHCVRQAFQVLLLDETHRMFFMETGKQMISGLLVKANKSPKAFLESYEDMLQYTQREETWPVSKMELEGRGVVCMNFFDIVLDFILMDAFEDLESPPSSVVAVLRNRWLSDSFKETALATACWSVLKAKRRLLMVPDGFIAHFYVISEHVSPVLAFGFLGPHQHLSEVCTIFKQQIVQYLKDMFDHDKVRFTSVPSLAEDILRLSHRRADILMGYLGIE

[2] = biological target: T2, MSP domain of mouse VAPB (residues 1-125) (mouse (Mus musculus), UniProt Q9QY76 1-125); assay: ITC; Microcal ITC200, 25 °C, buffer C (25 mM Tris-HCl pH 7.5, 150 mM NaCl, 4 mM β-mercaptoethanol); 20 injections of 2 μl; 1:1 binding model; details: both partners purified
T2 construct: vesicle-associated membrane protein-associated protein B/C (VAPB), mouse, MSP domain, residues 1-125; In the liposome clustering (DLS) and tethered lipid transfer assays a His-tagged form (His-mVAPB) was used; also called mVAPB; wild-type mVAPB
T2 sequence (Q9QY76 1-125): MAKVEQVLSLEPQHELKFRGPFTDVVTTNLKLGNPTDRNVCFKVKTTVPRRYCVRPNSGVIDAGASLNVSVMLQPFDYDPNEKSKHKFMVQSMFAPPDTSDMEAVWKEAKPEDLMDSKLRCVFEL

[3] = biological target: T3, MSP domain of mouse VAPB (residues 1-125), K43L/K45L (mouse (Mus musculus), UniProt Q9QY76 1-125, K43L | K45L); assay: as above; details: both partners purified
T3 construct: vesicle-associated membrane protein-associated protein B/C (VAPB), mouse, MSP domain, residues 1-125, K43L/K45L; also called mVAPB K43L/K45L
T3 sequence (Q9QY76 1-125 K43L/K45L): as the sequence (Q9QY76 1-125) above, with K43L, K45L counted along it

[4] = biological target: T4, MSP domain of mouse VAPB (residues 1-125), K87L/K118L (mouse (Mus musculus), UniProt Q9QY76 1-125, K87L | K118L); assay: as above; details: both partners purified
T4 construct: vesicle-associated membrane protein-associated protein B/C (VAPB), mouse, MSP domain, residues 1-125, K87L/K118L; also called mVAPB K87L/K118L
T4 sequence (Q9QY76 1-125 K87L/K118L): as the sequence (Q9QY76 1-125) above, with K87L, K118L counted along it

CCCCCCCCCCCCCCCC(=O)OC[C@H](COP(=O)([O-])OCC[N+](C)(C)C)OC(=O)CCCCCCCCCCCNc1ccc([N+](=O)[O-])c2nonc12 [NBD-PC, 1-palmitoyl-2-{12-[(7-nitro-2-1,3-benzoxadiazol-4-yl)amino]dodecanoyl}-sn-glycero-3-phosphocholine]
preloading, glutathione bead wash, Clear Native-PAGE fluorescence [1]: The NBD-PC bound zMiga2 was incubated with natural lipids across a range of concentrations

B1: phosphorylated FFAT motif peptide of mouse MIGA2 (residues 289-298) (peptide)
peptide: Ac-SED[pS]FF[pS]ATE-NH2
SMILES: CC(=O)N[C@@H](CO)C(=O)N[C@@H](CCC(=O)O)C(=O)N[C@@H](CC(=O)O)C(=O)N[C@@H](COP(=O)(O)O)C(=O)N[C@@H](Cc1ccccc1)C(=O)N[C@@H](Cc1ccccc1)C(=O)N[C@@H](COP(=O)(O)O)C(=O)N[C@@H](C)C(=O)N[C@H](C(=O)N[C@@H](CCC(=O)O)C(N)=O)[C@@H](C)O
notes: also called mMIGA2^pFFAT; phosphorylated FFAT peptide; source: synthetic peptide, purified by HPLC
Kd [2]: 1700 ± 200 nM | fold lower binding affinity than wild type mVAPB [3]: 5 fold | fold lower binding affinity than wild type mVAPB [4]: 3 fold
